This test concerns the target human ICAM-1 extracellular domain with human IgG1 Fc (UniProt P05362). Briefly: flow cytometry on cells. The note with it: HEK293FT cells; co-expressed with β2-WT and GFP-TH; parent: est. 270; read off a plot. For orientation: A flow cytometer gives signals particle by particle.
Sequence of UniProt P05362 (P05362 whole entry, looked up, the tested form may be a part): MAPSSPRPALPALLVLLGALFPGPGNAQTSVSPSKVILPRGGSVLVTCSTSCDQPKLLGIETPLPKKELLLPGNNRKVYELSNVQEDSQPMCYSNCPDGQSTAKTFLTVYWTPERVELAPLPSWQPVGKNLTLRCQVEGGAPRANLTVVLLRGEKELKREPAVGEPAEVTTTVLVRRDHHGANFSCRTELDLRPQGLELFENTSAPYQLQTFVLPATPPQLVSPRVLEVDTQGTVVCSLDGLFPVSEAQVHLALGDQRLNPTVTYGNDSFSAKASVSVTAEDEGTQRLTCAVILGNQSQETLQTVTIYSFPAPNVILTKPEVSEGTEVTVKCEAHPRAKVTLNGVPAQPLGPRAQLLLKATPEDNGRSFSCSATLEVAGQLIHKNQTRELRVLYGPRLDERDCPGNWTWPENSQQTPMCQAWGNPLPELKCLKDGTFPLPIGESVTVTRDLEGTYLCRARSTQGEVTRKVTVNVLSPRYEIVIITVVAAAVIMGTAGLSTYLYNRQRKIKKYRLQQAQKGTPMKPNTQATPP

On to αL-WT/β2-WT αL:K1097Y, for which the response (Normalized MFI in %) amounted to 190. As for αL-WT/β2-WT αL:L1096Y, the response (Normalized MFI in %) is 230.

These data come from PMC5864728.
